Measurements published in patent US20160310583A1 (SUMITOMO DAINIPPON PHARMA, published 2016).

B1: FAM83B-derived peptide F179_11 (peptide)
peptide: LLDESNFNHFL
B2: FAM83B-derived peptide F62_10 (peptide)
peptide: NYILKNVQKV
B3: FAM83B-derived peptide SF_9 (peptide)
peptide: SYQPNENKF
notes: also called FAM83B peptide
B4: FAM83B-derived peptide F47_10 (peptide)
peptide: LVQERVSDFL
B5: FAM83B-derived peptide F238_13 (peptide)
peptide: KVMYGSYSYMWSF
B6: FAM83B-derived peptide F148_10 (peptide)
peptide: KVIALVMDIF
B7: FAM83B-derived peptide F335_11 (peptide)
peptide: SYFKNRGIYTL
B8: FAM83B-derived peptide F594_9 (peptide)
peptide: PLPESIPKL
B9: FAM83B-derived peptide F239_10 (peptide)
peptide: VMYGSYSYMW
B10: FAM83B-derived peptide F46_11 (peptide)
peptide: FLVQERVSDFL
B11: FAM83B-derived peptide F466_11 (peptide)
peptide: SFNGTDNHIRF
B12: FAM83B-derived peptide F149_10 (peptide)
peptide: VIALVMDIFT
B13: FAM83B-derived peptide F971_9 (peptide)
peptide: SYGRSSPLL
B14: FAM83B-derived peptide F153_11 (peptide)
peptide: VMDIFTDVDIF
B15: FAM83B-derived peptide F939_9 (peptide)
peptide: PFCKIESSI
B16: FAM83B-derived peptide F107_10 (peptide)
peptide: GWPYVMPGLL
B17: FAM83B-derived peptide F18_10 (peptide)
peptide: NYIEPHYKEW
B18: FAM83B-derived peptide F176_10 (peptide)
peptide: VYILLDESNF
B19: FAM83B-derived peptide F27_10 (peptide)
peptide: WYRVAIDILI
B20: FAM83B-derived peptide F305_9 (peptide)
peptide: TYQHSVSSL
B21: FAM83B-derived peptide F276_11 (peptide)
peptide: LYARSCVPSSF

target: T1, HLA-A*02:01 (human); test: MHC class I stabilization on T2-A24 cells, flow cytometry, 100 ug/mL peptide
T1 construct: whole, on cells; MHC class I molecule, empty until peptide is added; detected with FITC anti-HLA-A02 antibody BB7.2

| Binder | MFI (solvent ratio) |
| --- | --- |
| B1 | ≥ 1.5 ratio to solvent |
| B2 | ≥ 1.5 ratio to solvent |

target: T2, HLA-A*24:02 (human); test: as above
T2 construct: whole, on cells; MHC class I molecule, empty until peptide is added; detected with FITC anti-HLA-A24 antibody 17A10

| Binder | MFI (solvent ratio) |
| --- | --- |
| B3 | ≥ 1.5 ratio to solvent |
| B4 | ≥ 1.5 ratio to solvent |
| B5 | ≥ 1.5 ratio to solvent |
| B6 | ≥ 1.5 ratio to solvent |
| B7 | ≥ 1.5 ratio to solvent |
| B8 | ≥ 1.5 ratio to solvent |
| B9 | ≥ 1.5 ratio to solvent |
| B10 | ≥ 1.5 ratio to solvent |
| B11 | ≥ 1.5 ratio to solvent |
| B12 | ≥ 1.5 ratio to solvent |
| B13 | ≥ 1.5 ratio to solvent |
| B14 | ≥ 1.5 ratio to solvent |
| B15 | ≥ 1.5 ratio to solvent |
| B16 | ≥ 1.5 ratio to solvent |
| B17 | ≥ 1.5 ratio to solvent |
| B18 | ≥ 1.5 ratio to solvent |
| B19 | ≥ 1.5 ratio to solvent |
| B20 | ≥ 1.5 ratio to solvent |
| B21 | ≥ 1.5 ratio to solvent |
| B2 | ≥ 1.5 ratio to solvent |

target: T1, HLA-A*02:01; test: as above; remark: another data set of the same source

| Binder | MFI (solvent ratio) |
| --- | --- |
| B3 | 1 ratio to solvent |
| B4 | 1.1 ratio to solvent |
| B5 | 1.2 ratio to solvent |
| B6 | 1.1 ratio to solvent |
| B7 | 1 ratio to solvent |
| B9 | 1.1 ratio to solvent |
| B11 | 1 ratio to solvent |
| B12 | 1.3 ratio to solvent |
| B13 | 1.1 ratio to solvent |
| B14 | 0.9 ratio to solvent |
| B15 | 0.9 ratio to solvent |
| B16 | 1 ratio to solvent |
| B17 | 1 ratio to solvent |
| B18 | 1.2 ratio to solvent |
| B19 | 1.2 ratio to solvent |
| B20 | 1.1 ratio to solvent |
| B21 | 1.2 ratio to solvent |
| B1 | 1.6 ratio to solvent |
| B2 | 2.9 ratio to solvent |

target: T2, HLA-A*24:02; test: as above; remark: another data set of the same source

| Binder | MFI (solvent ratio) |
| --- | --- |
| B3 | 2.3 ratio to solvent |
| B4 | 1.5 ratio to solvent |
| B5 | 5.1 ratio to solvent |
| B6 | 2.6 ratio to solvent |
| B7 | 2.3 ratio to solvent |
| B8 | 3.8 ratio to solvent |
| B9 | 2.2 ratio to solvent |
| B10 | 1.6 ratio to solvent |
| B11 | 1.7 ratio to solvent |
| B12 | 2.1 ratio to solvent |
| B13 | 1.8 ratio to solvent |
| B14 | 2 ratio to solvent |
| B15 | 2.7 ratio to solvent |
| B16 | 2.7 ratio to solvent |
| B17 | 3.2 ratio to solvent |
| B18 | 2.7 ratio to solvent |
| B19 | 3.2 ratio to solvent |
| B20 | 2.4 ratio to solvent |
| B21 | 3.4 ratio to solvent |
| B1 | 1.1 ratio to solvent |
| B2 | 1.6 ratio to solvent |
